Assay results as given in patent US20030114404, “Vascular endothelial growth factor (VEGF) nucleic acid ligand complexes” (Gilead Sciences, Inc., published 2003).

Columns and labels:
[1] = molecular target: T1, VEGF164 (Mus musculus, UniProt Q00731-2 Q00731-2:27-190); assay: filter; bound equally well to human and murine VEGF; conditions: tags: carrier-free, Sf21-expressed, R&D Systems; chain copies: 2
T1 sequence: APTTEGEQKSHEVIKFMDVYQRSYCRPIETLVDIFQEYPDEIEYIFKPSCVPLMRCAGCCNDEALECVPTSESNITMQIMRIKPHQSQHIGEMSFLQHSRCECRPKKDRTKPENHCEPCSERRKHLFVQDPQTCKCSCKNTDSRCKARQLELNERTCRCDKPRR
Description: (§1) Nucleic Acid Ligands radiolabeled during transcription by incorporation of α-[³²P]-labeled NTPs, or after synthesis using γ-[³²P]-ATP and T4 polynucleotide kinase, were incubated in low concentration (between 20 and 70 pM) with varying concentrations of VEGF or other growth factors at 37° C. for 15 minutes. Incubations were in TBS, PBS, or HEPES-buffered saline (HBS), pH 7.4, with or without the addition of supplemental divalent cations. Samples were passed through prewashed 0.45 μ Type HA filters (Millipore) followed by a 5-10 ml wash with binding buffer. Filters were immersed in scintillant and counted to quantitate the amount of protein-bound RNA retained by each filter. The equilibrium dissociation constant (KD) of Nucleic Acid Ligand binding to a specific protein was calculated from the data points as described in Green et al. (1996) Biochem. 35: 14413-14424.
(§2) VEGF is a highly conserved protein across species, the human VEGF₁₆₅ and mouse VEGF₁₆₄ isoforms showing 88% sequence identity. The truncated, 2′-OMe-substituted ligands bound equally well to human and murine VEGF. […] Heterodimers between VEGF and PIGF have recently been isolated from the supernatants of both normal and tumor-derived cell lines, and such heterodimers show activity in binding to one of two high affinity VEGF receptors and in inducing responses in cultured endothelial cells. […]

[2] = molecular target: T2, VEGF165 (Homo sapiens, UniProt P15692-4 P15692-4:27-191); assay: filter; 37 C; variable region ends GGCT in table, GGGU in listing; conditions: tags: carrier-free, Sf 21 insect cell expressed, R & D Systems; chain copies: 2 (inferred)
Description: as §1
Target sequence in this assay (P15692 other isoform, or with tags, fused parts or gaps): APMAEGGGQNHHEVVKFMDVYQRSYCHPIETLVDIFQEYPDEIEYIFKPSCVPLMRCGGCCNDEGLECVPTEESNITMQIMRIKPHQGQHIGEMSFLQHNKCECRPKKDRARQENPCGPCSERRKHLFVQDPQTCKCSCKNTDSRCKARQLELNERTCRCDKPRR

[3] = molecular target: VEGF121 (Homo sapiens, UniProt P15692-9 P15692-9:27-147); assay: filter; no measurable affinity; conditions: tags: carrier-free, E. coli expressed, R & D Systems; chain copies: 2 (inferred)
[4] = molecular target: T3, PlGF (UniProt P49763-2 P49763-2:19-149); assay: filter; no binding to PlGF homodimer; conditions: tags: carrier-free, E. coli expressed, R & D Systems; chain copies: 2 (stated homodimer)
T3 sequence: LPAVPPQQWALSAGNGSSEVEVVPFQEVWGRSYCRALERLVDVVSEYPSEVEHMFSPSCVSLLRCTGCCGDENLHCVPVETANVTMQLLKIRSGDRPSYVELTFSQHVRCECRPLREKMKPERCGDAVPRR
Description: as §1
VEGF is a highly conserved protein across species, the human VEGF₁₆₅ and mouse VEGF₁₆₄ isoforms showing 88% sequence identity. The truncated, 2′-OMe-substituted ligands bound equally well to human and murine VEGF. […] Heterodimers between VEGF and PIGF have recently been isolated from the supernatants of both normal and tumor-derived cell lines, and such heterodimers show activity in binding to one of two high affinity VEGF receptors and in inducing responses in cultured endothelial cells. The biological relevance of VEGF/PIGF heterodimers is unknown. […] Alternatively, the structure of the VEGF subunit may be altered by participation in a heterodimer with PIGF with consequent distortion of the Nucleic Acid Ligand binding surface.

[5] = molecular target: T2, VEGF165; assay: filter; divalent cations replaced with EGTA; CaCl2 restores binding, MgCl2 does not; conditions: tags: carrier-free, Sf 21 insect cell expressed, R & D Systems; chain copies: 2 (inferred)
Description: as §1
Ligands in Families 1 and 2 were selected in the presence of magnesium cations while Family 3 ligands were selected in a buffer containing both magnesium and calcium. Since divalent cations may contribute to RNA/protein interactions through nonspecific or specific stabilization of high affinity RNA structures, we asked whether magnesium and/or calcium were required for the high affinity binding of representative ligands to VEGF.

[6] = molecular target: T2, VEGF165; assay: filter; s.d. 11; text gives 49 pM; 37 C; calcium required; conditions: tags: carrier-free, Sf 21 insect cell expressed, R & D Systems; chain copies: 2 (inferred)
Description: as §1
(§3) 2′OH nucleotides are indicated in bold, and 2′OMe nucleotides are indicated in plain text.

[7] = molecular target: T1, VEGF164; assay: filter; binds equally well to human and murine VEGF; conditions: tags: carrier-free, Sf 21 insect cell expressed, R & D Systems; chain copies: 2 (inferred)
Description: as §1, §2

[8] = molecular target: T2, VEGF165; assay: filter; s.d. 50; 37 C; divalent cation independent; conditions: tags: carrier-free, Sf 21 insect cell expressed, R & D Systems; chain copies: 2 (inferred)
Description: as §1, §3

[9] = molecular target: T2, VEGF165; assay: filter; 37 C; variable region starts CCCC in table, CGCC in listing; conditions: tags: carrier-free, Sf 21 insect cell expressed, R & D Systems; chain copies: 2 (inferred)
Description: as §1

[10] = molecular target: T2, VEGF165; assay: filter; s.d. 36; 37 C; divalent cation independent; conditions: tags: carrier-free, Sf 21 insect cell expressed, R & D Systems; chain copies: 2 (inferred)
Description: as §1, §3

VEGF121, sequence (P15692 other isoform, or with tags, fused parts or gaps): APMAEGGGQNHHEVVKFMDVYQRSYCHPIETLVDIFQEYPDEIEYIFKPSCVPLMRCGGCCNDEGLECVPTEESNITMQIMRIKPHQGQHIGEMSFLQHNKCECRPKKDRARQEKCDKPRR

**Q.** Does GCGAACCGAUGGAAUUUUUGGACGCUCGC (ssRNA, 2'-F pyrimidines; 2'-OMe purines except 2'-OH A5 and G20) bind [1]?
**A.** binds

**Q.** Does GCGGUAGGAAGAAUUGGAAGCGC (ssRNA, 2'-F pyrimidines; 2'-OMe purines except 2'-OH G4 and A6) bind [1]?
**A.** binds

B1: VP40.39 (ssRNA)
RNA: GGGAGGACGAUGCGGCAGUUAAUUAACUUGAGUUGUGAUGUGUGUCGUUAUGGGUCAGACGACUCGCCCGA
modifications: 2'-F pyrimidines
**Q.** Which Kd [2] does the source give for B1 here?
**A.** 73 nM

**Q.** What does the source list for CGGAAUCAGUGAAUGCUUAUACAUCCG (ssRNA, 2'-F pyrimidines, 2'-OMe purines except 2'-OH A4, A5) [t44-OMe]?
**A.** binding result [3]: no binding; binding result [4]: no binding; Kd [5]: > 100 nM; Kd [6]: 0.051 nM; binding result [7]: binds

**Q.** Which results are given for GCGAACCGAUGGAAUUUUUGGACGCUCGC (ssRNA, 2'-F pyrimidines, 2'-OMe purines except 2'-OH A5, G20)?
**A.** binding result [3]: no binding; Kd [8]: 0.14 nM; binding result [4]: no binding

B2: VP30.29 (ssRNA)
RNA: GGGAGGACGAUGCGGCGCCACUUUGGAAGUUAUUGAAUUUCGCGUCAGACGACUCGCCCGA
modifications: 2'-F pyrimidines
**Q.** B2 was tested. Which Kd [9] did it give?
**A.** 0.007 nM

**Q.** Which results are given for GCGGUAGGAAGAAUUGGAAGCGC (ssRNA, 2'-F pyrimidines, 2'-OMe purines except 2'-OH G4, A6)?
**A.** binding result [3]: no binding; Kd [10]: 0.067 nM; binding result [4]: no binding
